Experimental data from US12359223B2, “Systems and methods for modulating chromosomal rearrangements” (Editas Medicine, Inc., priority 2018, dated 2025).

Test system: chromosome 15 (B2M) and chromosome 14 (TRAC) cut sites
Experiment: Translocation rates induced by translocation promoting oligos
Format: cell-based, human
Details: Cas9/B2M12 and Cas9/TRAC5 RNPs 0.6 μM; average of plus and minus strand oligo; FIG. 11B
Method: Two simultaneous DSBs were introduced in primary human T cells by nucleofection with Cas9/B2M (B2M12 gRNA) and Cas9/TRAC (TRAC5 gRNA) RNP complexes at a concentration of 0.6 μM, along with one of the translocation promoting oligos depicted in FIG. 11A.

B1: Dicentric oligo: translocation promoting ssODN, plus or minus strand, SEQ ID NOs: 16, 17 (nucleic acid)
chain 1: CACGCGTTTAATATAAGTGGAGGCGTCGCGCTGGCGGGCATTCCTGAAGCTGACAGCATTCGGGCCGAGATGATCAGGGTTCTGGATATCTGTGGGACAAGAGGATCAGGGTTAGGACATGATCTCATTTCCCTCTTTGCCCC
chain 2: GGGGCAAAGAGGGAAATGAGATCATGTCCTAACCCTGATCCTCTTGTCCCACAGATATCCAGAACCCTGATCATCTCGGCCCGAATGCTGTCAGCTTCAGGAATGCCCGCCAGCGCGACGCCTCCACTTATATTAAACGCGTG
modifications: /note=“Description of Unknown Donor template sequence”
- translocation products enhanced: enhanced the formation of Dicentric and Acentric translocation products
